B1: Enterococcus faecalis PTC lacking the C-terminal helix (helix 13), amino acids 1-317 (domain or fragment)
chain: not shown
notes: putrescine transcarbamylase, Enterococcus faecalis SD10 genomic DNA, gene ef0732, amino acids 1-317 followed by a stop codon (stop codon at position 318); Cloned in pNIC28-Bsa4; Most of the protein eluted as hexamers, a small fraction as monomers; also called truncated PTC; Trun; source: E. coli BL21 (DE3) co-transformed with pGroESL, purified (Ni-based chromatography)
B2: putrescine transcarbamylase (PTC) from Enterococcus faecalis, wild type (enzyme)
chain: not shown
notes: putrescine transcarbamylase, Enterococcus faecalis, gene ef0732, UniProt Q837U7; the final PTC-PAPU model has residues 1 to 340 in each chain; also called wild-type PTC; WT

Molecular target: the molecule itself
Experiment: SEC; analytical size exclusion chromatography, Superdex 200HR 5/150 GL, 20 µl of 10 mg/ml protein injected, 24°C, 50 mM Hepes pH 7.5, 0.25 M NaCl; column calibrated with protein standards

| Protein | stoichiometry N |
| --- | --- |
| B1 | 6 |
| B2 | 3 |
